Data reported in US20170052184A1 (published 2017).

T1: HCV Core1-169 (hepatitis C virus (HCV-1), UniProt P26664 1-169)
T1 sequence: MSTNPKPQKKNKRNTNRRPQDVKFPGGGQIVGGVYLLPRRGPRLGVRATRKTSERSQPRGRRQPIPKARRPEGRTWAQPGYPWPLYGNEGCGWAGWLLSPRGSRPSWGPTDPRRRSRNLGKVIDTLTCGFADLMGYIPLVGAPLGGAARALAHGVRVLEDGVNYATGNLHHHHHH


Key:
HCV Core1-169 [1] = target: T1, HCV Core1-169; experiment: SPR sandwich, capture mAb C11-3
[2] = target: T2, HCV Core 134-171-TT Peptide (hepatitis C virus (HCV-1 numbering) …); experiment: SPR, captured mAb, peptide analyte
T2 construct: also called ALRZ-9 peptide

HCV Core1-169 [3] = target: T1, HCV Core1-169; experiment: SPR sandwich, capture mAb C11-7
HCV Core1-169 [4] = target: T1, HCV Core1-169; experiment: SPR sandwich, capture mAb C11-9
HCV Core1-169 [5] = target: T1, HCV Core1-169; experiment: SPR sandwich, capture mAb C11-14

Binder	expected percent binding (HCV Core1-169 [1]) [%]	Kd [2] [pM]	koff [2] [s⁻¹]	kon [2] [M⁻¹ s⁻¹]	expected percent binding (HCV Core1-169 [3]) [%]	expected percent binding (HCV Core1-169 [4]) [%]	expected percent binding (HCV Core1-169 [5]) [%]
HCV 208B-612 (antibody, V domains shown) VH: EVQLQQSGPELVKPGASVKMSCKASGYRFTSYVMHWVRQKPGQGLEWIGYIDPHNDDTKYSEKFRGKATLTSDKSSTTAYMELSSLTSEDSAVYYCVRYSYDRDYSPMDYWGQGTSVTVSS VL: QIVLTQSPTLMSASPGEKVTMTCSASSTVTYIYWYQQKPGSSPRLWMYDTFNLVSGVPARFSGSRSGTSYFLTISSMEGEDAATYYCQQYSDSPYTFGGGTKLEIKR	3.8	350	6.5e-05	180000	4.4	≤ 1	3.1
HCV 208B-1096 (antibody, V domains shown) VH: QVQLQQSGAGLAKPGASVKMSCKASGYTFTANKMHWAKQRPGQGLEWIGYIDPSSGYTEYNHKIQYKATLTADTSSSTAYMQLSTLTFEDSAVYYCTNFAYWGQGTLVTVSA VL: DIVMTQTPLTLSVTIGQPASISCKSSQSLLFTNGKTYLNWFLQRPGQSPKRLIYLLSKLDSGVPDRFSGSGSGTDFTLKISRVEAEDLGVYYCLQSTYFPLTFGAGTKLELKR	15.1	460	0.0006	1.3e+06	16.9	11.4	16.3
HCV 208B-547 (antibody, V domains shown) VH: QVQLQQSGAELAKPGASVKMSCKASGYTFTSNKMHWAKQRPGQGLEWIGYIDPSSGYTEYNQKIKDKATLTADKSSSTAYMQLSSLTSEDSAVYYCTNFAYWGQGTLVTVSA VL: EVVLTQSPAITAASLGQKVTITCRASSSVSYMHWYRQKSGTSPQPWIYEISTLASGVPTRFRASGSGTSYSLTISSMEAEDAAIYYCQQWNYPLTFGAGTKLELKR	7.2	3200	0.0049	1.6e+06	8.3	4.9	8.2
HCV 208B-395 (antibody, V domains shown) VH: QVQLQQSGAGLAKPGASVKMSCKASGYTFTANKMHWTKQRPGQGLEWIGYIDPSSGYTQYNHKIQDKATLTADTSSSTAYMQLSSLTFEDSAVYYCTNFAYWGQGTLVTVSA VL: DIVLTQSPATLSVTPGDRVSLSCRASQRIYNYLHWYQQKSHESPRLLIKYASQSISGIPSRFSGSGSGTDFILTINSVETEDFGMYFCQQSNSWPLTFGAGTKLELRR	7.6	360	0.00047	1.3e+06	9.4	5.2	7.8
HCV 208B-589 (antibody, V domains shown) VH: QVQLQQSGAGLAKPGASVKMSCKASGYTFTANKMHWAKQRPGQGLEWIGYIDPSSGYTEYNHKIQDKATLTADTSSSTAYMQLSSLTFEDSAVYYCTNFAYWGQGTLVTVSA VL: DIVMTQTPLTLSVTIGQPASISCKSSQSLLFTNGKTYLNWFLQRPGQSPKRLIYLLSKLDSGVPDRFSGSGSGTDFTLKISRVEAEDLGVYYCLQSTYFPLTFGAGTKLELKR	9.4	630	0.00061	960000	11.7	6.7	9.9
HCV 208B-189 (antibody, V domains shown) VH: QVHLQQSGAELAKPGASVQMSCKASGYTFTANKMHWARQRPRQGLEWIGYIDPASGYTEYNQKIKDRATLTADKSSSTAYMQLSSLTSEDSAVYYCTNFAYWGQGTLVTVST VL: not shown	2.3	170	0.00015	880000	2.9	≤ 1	2.7
